Our source for the BaF3/FGFR3 cell proliferation, O.D. (WST-1), Sprifermin 100 ng/mL (CTR+) and BaF3/FGFR3 cell proliferation, Optical Density (WST-1), Sprifermin 100 ng/mL (CTR+) values is patent publication US20180236032A1.

Like-named read-outs stand apart in the source and are kept apart here.

Assay in all cases: cell-based or functional assay
The target of assay [1] is FGFR3c expressed on BaF3 cells (BaF3/FGFR3c).
Assay [2] shares this target. The source holds these as a separate data set.
Assay [3] has the same target. This is another data set of the same source.

Take “recombinant truncated FGF-18 (trFGF-18) (from UniProt O76093 28-196) (ligand)”: the values for the BaF3/FGFR3 cell proliferation, O.D. (WST-1), Sprifermin 100 ng/mL (CTR+) in assay [1], in assay [2] and in assay [3] were 0.5 O.D, 0.15 O.D and 0.194 O.D, respectively. In addition, in assay [1], the BaF3/FGFR3 cell proliferation, Optical Density (WST-1), Sprifermin 100 ng/mL (CTR+) was 0.5 O.D.
